System: peptide library, one residue held at a place counted from the S/T acceptor
Assay: relative phosphorylation of the sub-library (ratio to the mean residue at this position); higher = residue favoured
Method in brief: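 Spots on streptavidin membranes were phosphorimaged and quantified by densitometry to measure phosphorylation of biotinylated degenerate peptide sub-libraries by purified recombinant kinases, human or orthologue constructs. The reactions ran in 384-well plates for 90 min under kinase-specific conditions, with peptides at 50 μM and 50 μM ATP spiked with γ-32P-ATP. Relative sub-library phosphorylation is the ratio to the mean residue at that position.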

PRKACA, construct: Full length, human (from UniProt P17612)
relative phosphorylation
Settings | at +1 | at +2 | at +3 | at +4 | at -1 | at -2 | at -3 | at -4 | at -5
A fixed | 0.926 | 1.32 | 0.946 | 0.869 | 0.966 | 0.373 | 0.581 | 1.11 | 1.08
D fixed | 0.659 | 1.28 | 1.04 | 1.17 | 0.57 | 0.148 | 0.148 | 0.696 | 0.581
E fixed | 0.547 | 0.718 | 0.99 | 1.26 | 0.468 | 0.122 | 0.159 | 0.757 | 0.606
F fixed | 1.33 | 1.06 | 0.999 | 0.813 | 0.713 | 0.19 | 0.197 | 0.637 | 0.996
G fixed | 0.81 | 1.09 | 1.06 | 1.1 | 1.26 | 0.308 | 0.503 | 1.24 | 1.19
H fixed | 0.909 | 1.75 | 1.32 | 1.13 | 1.29 | 0.538 | 1.14 | 1.07 | 1.16
I fixed | 1.33 | 0.697 | 0.625 | 0.91 | 0.334 | 0.147 | 0.152 | 0.606 | 0.671
K fixed | 1.06 | 0.686 | 0.888 | 0.791 | 1.84 | 3.87 | 2.61 | 1.93 | 1.86
L fixed | 1.41 | 0.719 | 0.919 | 0.885 | 0.874 | 0.227 | 0.152 | 0.751 | 0.715
M fixed | 1.2 | 0.772 | 0.774 | 0.898 | 1.07 | 0.198 | 0.192 | 0.837 | 0.748
N fixed | 0.887 | 1.05 | 1.11 | 1.11 | 1.34 | 0.299 | 0.305 | 0.839 | 0.894
P fixed | 0.293 | 1.03 | 1.43 | 1.52 | 1.27 | 0.197 | 0.63 | 0.941 | 0.898
Q fixed | 1.03 | 1.15 | 1.01 | 1.07 | 0.951 | 0.563 | 0.644 | 0.982 | 0.783
R fixed | 1.04 | 0.818 | 1.04 | 0.971 | 1.76 | 9.26 | 8.72 | 2.43 | 2.05
V fixed | 1.33 | 0.953 | 0.696 | 0.779 | 0.468 | 0.155 | 0.179 | 0.631 | 0.744
W fixed | 1.27 | 0.905 | 1.16 | 0.999 | 0.775 | 0.208 | 0.324 | 0.772 | 1.13
Y fixed | 0.967 | 0.992 | 1 | 0.732 | 1.04 | 0.199 | 0.373 | 0.771 | 0.892
pThr fixed | 0.891 | 0.743 | 0.951 | 1.62 | 0.312 | 0.225 | 0.261 | 0.625 | 0.644
pTyr fixed | 0.993 | 1.03 | 1.14 | 1.42 | 0.798 | 0.214 | 0.283 | 0.742 | 0.703

PRKCD, construct: Full length, human (from UniProt Q05655)
relative phosphorylation
Settings | at +1 | at +2 | at +3 | at +4 | at -1 | at -2 | at -3 | at -4 | at -5
A fixed | 0.496 | 0.437 | 0.73 | 0.842 | 0.91 | 0.9 | 0.795 | 1.04 | 1.04
D fixed | 0.253 | 0.525 | 0.696 | 1.03 | 0.598 | 0.587 | 0.699 | 0.932 | 1.2
E fixed | 0.309 | 0.317 | 0.608 | 0.63 | 0.465 | 0.531 | 0.579 | 0.972 | 0.903
F fixed | 1.51 | 0.438 | 0.642 | 0.4 | 0.549 | 0.621 | 0.594 | 0.703 | 0.815
G fixed | 0.553 | 0.459 | 1.11 | 1.28 | 1.64 | 1.2 | 0.977 | 1.36 | 1.18
H fixed | 0.803 | 1.39 | 0.871 | 1.23 | 0.961 | 1.13 | 1.17 | 1.14 | 1.07
I fixed | 1.65 | 0.64 | 0.781 | 0.695 | 0.355 | 0.466 | 0.401 | 0.617 | 0.809
K fixed | 1.74 | 3.33 | 2.15 | 2.05 | 2.3 | 1.9 | 1.91 | 1.55 | 1.48
L fixed | 1.21 | 0.564 | 0.846 | 0.757 | 0.658 | 0.506 | 0.464 | 0.608 | 0.78
M fixed | 1.58 | 0.69 | 0.801 | 0.731 | 0.852 | 0.677 | 0.576 | 0.807 | 0.657
N fixed | 0.685 | 1 | 1.04 | 1.13 | 1.38 | 1.22 | 1.07 | 1.1 | 0.932
P fixed | 0.343 | 0.487 | 0.68 | 1.54 | 1.29 | 0.835 | 1.12 | 1.18 | 1.17
Q fixed | 1.18 | 0.93 | 1.04 | 1.19 | 1.35 | 1.23 | 1.01 | 0.979 | 0.868
R fixed | 1.6 | 3.33 | 2.03 | 1.48 | 1.74 | 3.16 | 3.86 | 1.58 | 1.65
V fixed | 1.39 | 0.648 | 0.742 | 0.65 | 0.583 | 0.522 | 0.406 | 0.691 | 0.769
W fixed | 0.743 | 0.741 | 1.12 | 0.746 | 0.527 | 0.806 | 0.658 | 1.1 | 0.993
Y fixed | 0.961 | 1.07 | 1.11 | 0.625 | 0.834 | 0.713 | 0.707 | 0.638 | 0.685
pThr fixed | 0.685 | 0.458 | 0.52 | 0.675 | 0.341 | 0.563 | 0.624 | 0.713 | 0.644
pTyr fixed | 0.469 | 0.662 | 0.56 | 0.396 | 0.465 | 0.576 | 0.541 | 0.524 | 0.673

Source: the supplement of paper PMC9876800
